Measurements published in doi:10.1101/2021.05.03.442466.

Columns and labels:
[1] = molecular target: salt stripped chicken erythrocyte mononucleosomes (chicken (endogenous in erythrocytes)); assay: native gel or EMSA
[2] = molecular target: HMGN2 (UniProt P05204); assay: co-IP
[3] = molecular target: HMGN1 (UniProt P05114); assay: co-IP

Row | H3K27ac level in HA complexes over LA MNs (dot blot) [1] [times] | H3K27ac level in HMGN-bound ON over input ON (dot blot) [2] [fold] | H3K27ac level in HMGN-bound ON over input ON (dot blot) [3] [fold] | H3K27ac signal in HMGN1-bound over input nucleosomes (Western) [3] [fold] | H3K27ac level in HA over LA fraction (Western) [1] [fold] | percent of total MNs not shifted (LA fraction) at HMGN:MN ratio 2.0 [1] [%] | percent of total MNs shifted (HA fraction) at HMGN1:MN ratio 0.2 [1] [%] | Molecule
1 | 1.5 | – | – | – | – | – | – | HMGN2 (from UniProt P05204 1-90) (natural protein)
2 | – | > 3 | > 3 | 2.7 | – | – | – | salt-stripped oligonucleosomes from mouse embryonic fibroblasts (complex)
3 | 1.5 | – | – | – | 2 | 12 | 9 | HMGN1 (natural protein) MPKRKVSSAEGAAKEEPKRRSARLSAKPPAKVEAKPKKAAAKDKSSDKKVQTKGKRGAKGKQAEVANQETKEDLPAENGETKTEESPASDEAGEKEAKSD
